In data set [1] the target is fibronectin (Homo sapiens, UniProt P02751). Briefly: IL-2 fusion protein plate binding assay to fibronectin. The protocol: A similar plate-based assay was developed to interrogate binding of IL-2 fusion variants to fibronectin. 96-well plates were coated with 4 ug/mL of fibronectin (Sigma) or control BSA for 18-22 h at room temperature on shaker (350 rpm). After washing, wells are blocked with protein-free blocking buffer (Pierce) for 90 min, then fusion proteins are titrated in blocking buffer-0.1% Tween 20 pH 7.5 and/or pH 6 and added for 1 hr at room temperature with shaking. After washing, an anti-mouse IL-2 biotin-labelled detection antibody (JES6-5H4, ThermoFisher) is added and binding is detected using Ultra Streptavidin HRP (ThermoFisher). The plate was developed by adding the chromogenic tetramethylbenzidine substrate (Ultra TMB, ThermoFisher). The reaction is stopped by addition of 0.5M H2SO4 and the absorbance is read at 450-650 nm.

Data set [2] has as its system heparin. Description: IL-2 fusion protein plate binding assay to Heparin-BSA conjugate. The protocol: 96-well plates were coated with 25 ug/mL of Heparin-BSA conjugate (provided by Dr. Mueller, Boerhinger Ingelheim) or control BSA for 18-22 h at room temperature on shaker (350 rpm). After washing, wells are blocked with PBS-0.05% Tween 20/1% BSA for 90 min, then fusion proteins are titrated in 1% BSA/PBS-0.05% Tween 20 pH 7.5 and/or pH 6 and added for 2 hr at room temperature with shaking. After washing, an anti-mouse IL-2 biotin-labelled detection antibody (JES6-5H4, ThermoFisher) is added and binding is detected using Ultra Strepavidin HIRP (ThermoFisher). The plate was developed by adding the chromogenic tetramethylbenzidine substrate (Ultra TMB, ThermoFisher). The reaction is stopped by addition of 0.5M H2SO4 and the absorbance is read at 450-650 nm.

In data set [3] the test system is MC38 tumor. Briefly: Systemic IV injection in syngeneic MC38 colorectal cancer model. The class given is in vivo. The protocol:
The objective of this study is to evaluate efficacy of Construct B in the MC38-bearing female C57BL/6 mice. For this study, C57BL/6 6-8 weeks old female mice (Jackson Labs) were subcutaneously inoculated with MC38 cells (10^6 cells/animal), and when the average tumor volume reached about 80 mm^3, animals were randomized into 2 groups based on tumor volumes (8 mice per treatment group). Animals were dosed according to the following study design:
Mice were dosed over a 21 day period then further observed for an additional week.

For data set [4], the system named is B16F10. Description: In vivo efficacy in B16F10 melanoma model (Example 12). As to the method:
For the efficacy studies, C57BL/6 or BALB/c mice were subcutaneously inoculated with malignant cells and when the average tumor volume reached on average 90 mm^3, animals were randomized into 2 groups based on tumor volumes (n=10 mice per treatment group). Mice were dosed intravenously every 3 days (Q3D) at 20 mg/kg. Tumors, body weights and clinical observations were measured/collected twice a week for the duration of the study. Tumor volume is shown in FIGS. 10A-D, 11A, 12A, and 13B-C. […] Liver and kidney enzyme results corresponding to FIGS. 11A and 12A are shown in FIGS. 11B-D and 12B-D, respectively.

Data set [5] deals with collagen. Description: IL-2 fusion protein collagen-agarose pulldown (immunoblot quantitation). It is filed as binding. As to the method: To test binding to collagen, a pulldown assay using agarose cross-linked to collagen (Sigma) was performed. IL-2 fusion proteins were incubated with collagen-agarose or control agarose beads for 18-22 h at 4C with gentle rotation in 1% BSA/PBS-0.05% Tween 20. After washing, proteins bound to the beads were eluted by resuspending beads in SDS sample buffer (Life Technologies). Bound proteins were then separated by SDS-PAGE on 4-12% BisTris gradient gel followed by immunoblotting with goat anti-mouse IL-2 polyclonal antibody (AF-402-NA; R&D systems). Donkey Anti-goat RP-conjugated antibody was used for detection (Jackson Immuno Research, West Grove, PA) and the blot was developed using the SuperSignal West Femto Maximum sensitivity detection reagent (ThermoFisher) following the manufacturer's recommendations.
For orientation: A western blot detects proteins with antibodies after separation by electrophoresis.

Data set [6] concerns the target T1, MMP9 (Mus musculus, UniProt P41245).
T1 construct: purchased R&D Systems
Description: Cleavage of fusion protein by MMP9 protease (SDS-PAGE / Western blot). It is filed as biochemical. As to the method:
Recombinant MMP9 and/or MMP2 (R&D Systems) was first activated with p-aminophenylmercuric acetate and this activated protease or equivalent amount of activating solution without the protease was used to digest or mock digest the fusion protein for 1 hr, 2 hr, 4 hr and overnight (18-22 hr) at 37 C. Cleavage assays are set up in TCNB buffer: 50 mM Tris, 10 mM CaCl2), 150 mM NaCl, 0.05% Brij-35 (w/v), pH 7.5. Digested protein was aliquoted and stored at −80° C. prior to testing. Aliquots of digests were subsequently analyzed by SDS-PAGE followed by Western blotting to evaluate the extent of cleavage. Digests were also assessed in functional assays such as CTLL-2 proliferation and HEK-Blue Interleukin reporter assays. As shown in FIGS. 2A-E, essentially complete cleavage by MMP9 protease of the fusion proteins with functional site is seen after overnight incubation. In contrast, proteins containing a scrambled MMP cleavage site are not cut (FIG. 2E).
Untreated and digested fusion proteins were evaluated for cleavage products by Western blot. The following monoclonal antibodies were used: rat anti-mouse IL-2 antibody (JES6-1A12; ThermoFisher), goat anti-mouse IL-2 polyclonal antibody (AF-402-NA; R&D systems), mouse anti-6xHis monoclonal antibody (MA1-21315, ThermoFisher), Anti-mIgG Fc HRP conjugated (ThermoFisher cat #A16084), and Anti-human IL2 antibody (Invitrogen, cat #MA5-17097, mouse IgG1). Detection was performed using either a goat anti-rat HRP-conjugated antibody, Donkey Anti-goat HRP-conjugated antibody or Goat Anti-mouse HIRP conjugated (Jackson Immuno Research, West Grove, PA) and developed using the SuperSignal West Femto Maximum sensitivity detection reagent (ThermoFisher) following the manufacturer's recommendations.

Entries after “also recorded” stand apart in the source; their conditions may differ.

T1 sequence (P41245 108-730): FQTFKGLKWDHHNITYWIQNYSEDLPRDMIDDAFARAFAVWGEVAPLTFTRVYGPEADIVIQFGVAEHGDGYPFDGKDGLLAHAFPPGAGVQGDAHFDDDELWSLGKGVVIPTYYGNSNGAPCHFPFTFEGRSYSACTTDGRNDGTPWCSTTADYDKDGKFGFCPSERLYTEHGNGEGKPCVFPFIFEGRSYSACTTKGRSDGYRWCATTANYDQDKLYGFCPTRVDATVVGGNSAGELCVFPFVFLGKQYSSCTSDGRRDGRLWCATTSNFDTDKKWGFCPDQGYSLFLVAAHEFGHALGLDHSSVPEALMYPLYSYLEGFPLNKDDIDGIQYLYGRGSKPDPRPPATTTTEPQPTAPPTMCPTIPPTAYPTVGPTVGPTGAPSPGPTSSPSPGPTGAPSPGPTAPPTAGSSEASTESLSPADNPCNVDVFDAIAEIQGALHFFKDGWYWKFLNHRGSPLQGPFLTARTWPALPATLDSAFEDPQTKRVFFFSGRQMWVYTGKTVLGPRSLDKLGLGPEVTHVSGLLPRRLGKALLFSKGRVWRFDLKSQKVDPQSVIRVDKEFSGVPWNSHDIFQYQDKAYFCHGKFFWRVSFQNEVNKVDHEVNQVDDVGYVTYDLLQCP
Chain of fibronectin (P02751 32-2477, species assumed): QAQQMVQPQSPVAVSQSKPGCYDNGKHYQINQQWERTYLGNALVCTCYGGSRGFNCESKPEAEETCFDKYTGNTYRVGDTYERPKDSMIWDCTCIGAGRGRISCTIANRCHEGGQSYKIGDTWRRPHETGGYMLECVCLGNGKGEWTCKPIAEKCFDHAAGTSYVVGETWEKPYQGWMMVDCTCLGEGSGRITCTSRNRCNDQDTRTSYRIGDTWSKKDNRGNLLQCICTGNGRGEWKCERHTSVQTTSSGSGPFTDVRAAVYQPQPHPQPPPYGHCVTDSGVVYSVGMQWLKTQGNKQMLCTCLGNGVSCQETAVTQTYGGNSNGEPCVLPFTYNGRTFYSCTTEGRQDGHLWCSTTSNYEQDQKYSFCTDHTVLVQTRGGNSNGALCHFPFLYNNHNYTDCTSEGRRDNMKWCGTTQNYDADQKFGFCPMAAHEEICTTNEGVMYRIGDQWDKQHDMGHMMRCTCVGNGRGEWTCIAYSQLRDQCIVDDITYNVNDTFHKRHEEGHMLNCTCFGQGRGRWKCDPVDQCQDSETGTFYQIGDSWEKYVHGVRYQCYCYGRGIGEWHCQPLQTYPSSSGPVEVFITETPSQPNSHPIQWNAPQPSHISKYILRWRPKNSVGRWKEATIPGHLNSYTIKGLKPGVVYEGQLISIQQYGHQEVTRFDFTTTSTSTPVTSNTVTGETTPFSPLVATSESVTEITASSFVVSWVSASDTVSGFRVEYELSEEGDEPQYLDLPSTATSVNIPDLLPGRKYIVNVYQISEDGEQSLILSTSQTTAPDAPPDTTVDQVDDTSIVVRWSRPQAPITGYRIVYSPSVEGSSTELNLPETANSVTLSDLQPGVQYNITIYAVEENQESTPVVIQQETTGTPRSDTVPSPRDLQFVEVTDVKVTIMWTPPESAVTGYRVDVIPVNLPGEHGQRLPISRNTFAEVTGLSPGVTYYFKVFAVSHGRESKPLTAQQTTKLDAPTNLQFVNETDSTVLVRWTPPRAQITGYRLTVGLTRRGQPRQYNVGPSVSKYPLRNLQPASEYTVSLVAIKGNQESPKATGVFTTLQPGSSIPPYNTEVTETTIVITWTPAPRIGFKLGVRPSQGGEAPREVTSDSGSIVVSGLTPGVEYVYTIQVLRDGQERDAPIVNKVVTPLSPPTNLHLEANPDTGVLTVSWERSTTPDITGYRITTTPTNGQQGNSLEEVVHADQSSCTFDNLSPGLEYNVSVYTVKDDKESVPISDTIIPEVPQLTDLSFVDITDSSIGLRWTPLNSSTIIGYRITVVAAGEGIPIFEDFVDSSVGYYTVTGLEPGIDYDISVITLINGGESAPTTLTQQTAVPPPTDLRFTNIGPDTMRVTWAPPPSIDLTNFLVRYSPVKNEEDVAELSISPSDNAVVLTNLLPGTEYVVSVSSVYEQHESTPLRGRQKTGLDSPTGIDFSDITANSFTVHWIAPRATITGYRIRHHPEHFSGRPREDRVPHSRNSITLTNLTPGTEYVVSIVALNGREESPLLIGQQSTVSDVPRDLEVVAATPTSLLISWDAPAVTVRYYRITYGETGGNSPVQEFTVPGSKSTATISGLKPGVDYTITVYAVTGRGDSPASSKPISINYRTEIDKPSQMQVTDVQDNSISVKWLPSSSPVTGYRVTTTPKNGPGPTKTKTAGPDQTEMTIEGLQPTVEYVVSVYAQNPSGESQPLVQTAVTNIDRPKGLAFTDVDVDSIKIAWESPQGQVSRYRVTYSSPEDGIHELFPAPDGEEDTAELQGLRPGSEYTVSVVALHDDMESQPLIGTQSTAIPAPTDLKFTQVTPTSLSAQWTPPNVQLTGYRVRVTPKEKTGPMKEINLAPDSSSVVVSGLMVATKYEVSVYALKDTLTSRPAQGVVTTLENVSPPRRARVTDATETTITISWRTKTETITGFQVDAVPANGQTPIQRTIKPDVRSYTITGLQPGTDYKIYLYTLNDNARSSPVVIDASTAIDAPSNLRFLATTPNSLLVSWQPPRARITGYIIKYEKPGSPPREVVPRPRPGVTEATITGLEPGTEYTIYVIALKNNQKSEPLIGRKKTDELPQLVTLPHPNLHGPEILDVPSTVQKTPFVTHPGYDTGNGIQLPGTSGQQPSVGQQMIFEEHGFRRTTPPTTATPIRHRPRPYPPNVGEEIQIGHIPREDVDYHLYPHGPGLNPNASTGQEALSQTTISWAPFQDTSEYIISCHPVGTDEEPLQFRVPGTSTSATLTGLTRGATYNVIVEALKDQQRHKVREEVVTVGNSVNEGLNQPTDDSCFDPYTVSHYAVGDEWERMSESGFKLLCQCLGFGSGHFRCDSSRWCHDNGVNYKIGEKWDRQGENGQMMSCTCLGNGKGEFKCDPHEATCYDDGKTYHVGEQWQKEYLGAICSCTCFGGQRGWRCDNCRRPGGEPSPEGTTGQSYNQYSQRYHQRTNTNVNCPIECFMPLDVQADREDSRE

B1: Construct B: SEQ ID NO 101: m IL2-2x(SG4)-MMPcs1-2x(G4S)-IL2Ralpha-mIgG1 Fc (protein)
chain: APTSSSTSSSTAEAQQQQQQQQQQQQHLEQLLMDLQELLSRMENYRNLKLPRMLTFKFYLPKQATELKDLQCLEDELGPLRHVLDLTQSKSFQLEDAENFISNIRVTVVKLKGSDNTFECQFDDESATVVDFLRRWIAFCQSIISTSPQSGGGGSGGGGGPLGVRGGGGGSGGGGSELCLYDPPEVPNATFKALSYKNGTILNCECKRGFRRLKELVYMRCLGNSWSSNCQCTSNSHDKSRKQVTAQLEHQKEQQTTTDMQKPTQSMHQENLTGHCREPPPWKHEDSKRIYHFVEGQSVHYECIPGYKALQRGPAISICKMKCGKTGWTQPQLTCVDEREHHRFLASEESQGSRNSSPESETSCPITTTDFPQPTETTAMTETFVLTMEYKGCKPCICTVPEVSSVFIFPPKPKDVLTITLTPKVTCVVVDISKDDPEVQFSWFVDDVEVHTAQTQPREEQFNSTFRSVSELPIMHQDWLNGKEFKCRVNSAAFPAPIEKTISKTKGRPKAPQVYTIPPPKEQMAKDKVSLTCMITDFFPEDITVEWQWNGQPAENYKNTQPIMDTDGSYFVYSKLNVQKSNWEAGNTFTCSVLHEGLHNHHTEKSLSHSPGK
Consider B1, for which the “fibronectin binding at acidic pH” value in data set [1] (pH 6) is listed as “No significant binding”. Further, the “fibronectin binding at pH 7.5” value in data set [1] (pH 7.5 (neutral)) is “No significant binding”. Moreover, the “heparin binding EC50 relative to Construct CC” value in data set [2] (fold higher EC50 value) was above 100 fold. The “heparin binding (qualitative)” value in data set [2] (pH 6 vs pH 7.5, plate assay) is reported as “much weaker”. Moreover, in data set [3] (10 mpk IV Q3D for 21 D), the “adverse effect / systemic toxicity” value is listed as “Essentially no systemic toxicity; also recorded: no adverse effect” and the “mouse body weight during treatment” value is “substantially constant”. Further, in data set [3] (IV Q3D, eight administrations, vs vehicle), the “tumor growth (qualitative)” value is given as “virtually no tumor growth after initiation of treatment”. In addition, in data set [3] (MC-38, C57BL/6, 10 mpk IV Q3D, Day 21), the “inhibition of tumor growth / Max TGI %” value is given as 92%. Further, in data set [3] (out of 8 cases, 10 mpk IV Q3D for 21 D), the “complete tumor regressions ('cures')” value is 3. In addition, the “Max TGI %” value in data set [4] (B16F10, C57BL/6, 20 mpk IV Q3D, D12) is reported as 49%. In addition, the “signs of toxicity (body weight loss, liver and/or kidney enzymes, clinical observations)” value in data set [4] (B16F10 model, 20 mg/kg IV Q3D) is “no signs of toxicity”. The molecule further showed a Bound in data set [5] (blot quantitation, collagen-agarose bound fraction) of 2306. For the same molecule, the Normalized in data set [5] (bound fraction relative to Construct B (fold)) came to 1. The “Bound (% input)” value in data set [5] (fraction bound to collagen-agarose) worked out at 0.3%. In addition, the “full-length cytokine prodrug remaining” value in data set [6] (20 hour +MMP time point) is on record as “only a faint band”. The “time at which cleavage product was detectable” value in data set [6] (+MMP-9 digestion, Western blot) was 1 h.

Source of the values: patent US20240043489A1, “Cytokine Prodrugs Comprising a Cleavable Linker” (Trutino Biosciences Inc., priority 2020, published 2024).
